Results reported in US20030004314A1 (published 2003).

T1: T cell IL-4 receptor (IL-4Rα/IL-2Rγ) (human, UniProt P24394 26-825; P31785 23-369)
T1 sequence (looked up) 1: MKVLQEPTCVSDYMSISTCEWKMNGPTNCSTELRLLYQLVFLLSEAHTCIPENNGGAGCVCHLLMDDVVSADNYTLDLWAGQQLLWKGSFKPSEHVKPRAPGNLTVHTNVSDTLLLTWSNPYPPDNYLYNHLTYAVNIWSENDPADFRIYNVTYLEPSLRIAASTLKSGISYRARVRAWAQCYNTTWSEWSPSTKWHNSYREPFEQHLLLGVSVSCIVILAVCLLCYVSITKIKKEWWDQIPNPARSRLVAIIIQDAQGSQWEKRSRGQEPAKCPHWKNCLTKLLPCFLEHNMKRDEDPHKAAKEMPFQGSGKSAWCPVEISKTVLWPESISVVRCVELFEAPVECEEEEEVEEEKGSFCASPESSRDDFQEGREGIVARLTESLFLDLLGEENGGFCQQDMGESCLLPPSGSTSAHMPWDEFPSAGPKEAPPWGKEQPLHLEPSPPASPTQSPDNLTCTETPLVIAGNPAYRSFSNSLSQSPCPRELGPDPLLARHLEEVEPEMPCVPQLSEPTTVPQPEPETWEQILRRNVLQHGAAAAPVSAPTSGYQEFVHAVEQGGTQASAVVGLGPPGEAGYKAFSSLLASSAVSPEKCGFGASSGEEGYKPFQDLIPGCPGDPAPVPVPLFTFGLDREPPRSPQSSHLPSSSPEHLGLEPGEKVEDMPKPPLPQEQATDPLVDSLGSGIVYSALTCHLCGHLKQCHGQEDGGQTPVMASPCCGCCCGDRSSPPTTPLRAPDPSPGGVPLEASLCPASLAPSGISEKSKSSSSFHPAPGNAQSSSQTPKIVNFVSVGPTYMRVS
T1 sequence (looked up) 2: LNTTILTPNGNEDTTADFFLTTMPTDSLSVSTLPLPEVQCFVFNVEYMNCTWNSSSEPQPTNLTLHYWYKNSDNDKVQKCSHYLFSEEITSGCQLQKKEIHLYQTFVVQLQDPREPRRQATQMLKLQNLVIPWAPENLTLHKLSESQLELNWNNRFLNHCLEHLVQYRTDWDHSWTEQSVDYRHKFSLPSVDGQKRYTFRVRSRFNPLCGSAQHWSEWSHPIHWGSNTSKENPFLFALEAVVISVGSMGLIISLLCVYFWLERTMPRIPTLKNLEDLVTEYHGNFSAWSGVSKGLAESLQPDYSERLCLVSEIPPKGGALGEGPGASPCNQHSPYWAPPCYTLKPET

B1: IL-4 mutein R121E (ligand)
chain: HKCDITLQEIIKTLNSLTEQKTLCTELTVTDIFAASKNTTEKETFCRAATVLRQFYSHHEKDTRCLGATAQQFHRHKQLIRFLKRLDRNLWGLAGLNSCPVKEANQSTLENFLERLKTIMEEKYSKCSS
B2: IL-4 mutein R121P (ligand)
chain: HKCDITLQEIIKTLNSLTEQKTLCTELTVTDIFAASKNTTEKETFCRAATVLRQFYSHHEKDTRCLGATAQQFHRHKQLIRFLKRLDRNLWGLAGLNSCPVKEANQSTLENFLERLKTIMPEKYSKCSS
B3: IL-4 mutein R121D (ligand)
chain: HKCDITLQEIIKTLNSLTEQKTLCTELTVTDIFAASKNTTEKETFCRAATVLRQFYSHHEKDTRCLGATAQQFHRHKQLIRFLKRLDRNLWGLAGLNSCPVKEANQSTLENFLERLKTIMDEKYSKCSS
B4: IL-4 mutein R121N (ligand)
chain: HKCDITLQEIIKTLNSLTEQKTLCTELTVTDIFAASKNTTEKETFCRAATVLRQFYSHHEKDTRCLGATAQQFHRHKQLIRFLKRLDRNLWGLAGLNSCPVKEANQSTLENFLERLKTIMNEKYSKCSS
B5: IL-4 mutein R121H (ligand)
chain: HKCDITLQEIIKTLNSLTEQKTLCTELTVTDIFAASKNTTEKETFCRAATVLRQFYSHHEKDTRCLGATAQQFHRHKQLIRFLKRLDRNLWGLAGLNSCPVKEANQSTLENFLERLKTIMHEKYSKCSS
B6: IL-4 mutein Y124T (ligand)
chain: HKCDITLQEIIKTLNSLTEQKTLCTELTVTDIFAASKNTTEKETFCRAATVLRQFYSHHEKDTRCLGATAQQFHRHKQLIRFLKRLDRNLWGLAGLNSCPVKEANQSTLENFLERLKTIMREKTSKCSS
B7: IL-4 mutein Y124A (ligand)
chain: HKCDITLQEIIKTLNSLTEQKTLCTELTVTDIFAASKNTTEKETFCRAATVLRQFYSHHEKDTRCLGATAQQFHRHKQLIRFLKRLDRNLWGLAGLNSCPVKEANQSTLENFLERLKTIMREKASKCSS
B8: IL-4 mutein R121K (ligand)
chain: HKCDITLQEIIKTLNSLTEQKTLCTELTVTDIFAASKNTTEKETFCRAATVLRQFYSHHEKDTRCLGATAQQFHRHKQLIRFLKRLDRNLWGLAGLNSCPVKEANQSTLENFLERLKTIMKEKYSKCSS
B9: IL-4 mutein Y124A/S125A (ligand)
chain: HKCDITLQEIIKTLNSLTEQKTLCTELTVTDIFAASKNTTEKETFCRAATVLRQFYSHHEKDTRCLGATAQQFHRHKQLIRFLKRLDRNLWGLAGLNSCPVKEANQSTLENFLERLKTIMREKAAKCSS
B10: IL-4 mutein Y124S (ligand)
chain: HKCDITLQEIIKTLNSLTEQKTLCTELTVTDIFAASKNTTEKETFCRAATVLRQFYSHHEKDTRCLGATAQQFHRHKQLIRFLKRLDRNLWGLAGLNSCPVKEANQSTLENFLERLKTIMREKSSKCSS
B11: IL-4 mutein R121F (ligand)
chain: HKCDITLQEIIKTLNSLTEQKTLCTELTVTDIFAASKNTTEKETFCRAATVLRQFYSHHEKDTRCLGATAQQFHRHKQLIRFLKRLDRNLWGLAGLNSCPVKEANQSTLENFLERLKTIMFEKYSKCSS
B12: IL-4 mutein T13D/R121E (ligand)
chain: HKCDITLQEIIKDLNSLTEQKTLCTELTVTDIFAASKNTTEKETFCRAATVLRQFYSHHEKDTRCLGATAQQFHRHKQLIRFLKRLDRNLWGLAGLNSCPVKEANQSTLENFLERLKTIMEEKYSKCSS
B13: IL-4 mutein R121T/E122F/Y124Q (ligand)
chain: HKCDITLQEIIKTLNSLTEQKTLCTELTVTDIFAASKNTTEKETFCRAATVLRQFYSHHEKDTRCLGATAQQFHRHKQLIRFLKRLDRNLWGLAGLNSCPVKEANQSTLENFLERLKTIMTFKQSKCSS
B14: IL-4 mutein Y124Q (ligand)
chain: HKCDITLQEIIKTLNSLTEQKTLCTELTVTDIFAASKNTTEKETFCRAATVLRQFYSHHEKDTRCLGATAQQFHRHKQLIRFLKRLDRNLWGLAGLNSCPVKEANQSTLENFLERLKTIMREKQSKCSS
B15: IL-4 mutein R121A (ligand)
chain: HKCDITLQEIIKTLNSLTEQKTLCTELTVTDIFAASKNTTEKETFCRAATVLRQFYSHHEKDTRCLGATAQQFHRHKQLIRFLKRLDRNLWGLAGLNSCPVKEANQSTLENFLERLKTIMAEKYSKCSS
B16: IL-4 mutein R121W (ligand)
chain: HKCDITLQEIIKTLNSLTEQKTLCTELTVTDIFAASKNTTEKETFCRAATVLRQFYSHHEKDTRCLGATAQQFHRHKQLIRFLKRLDRNLWGLAGLNSCPVKEANQSTLENFLERLKTIMWEKYSKCSS
B17: IL-4 mutein Y124R (ligand)
chain: HKCDITLQEIIKTLNSLTEQKTLCTELTVTDIFAASKNTTEKETFCRAATVLRQFYSHHEKDTRCLGATAQQFHRHKQLIRFLKRLDRNLWGLAGLNSCPVKEANQSTLENFLERLKTIMREKRSKCSS
B18: IL-4 mutein R121I (ligand)
chain: HKCDITLQEIIKTLNSLTEQKTLCTELTVTDIFAASKNTTEKETFCRAATVLRQFYSHHEKDTRCLGATAQQFHRHKQLIRFLKRLDRNLWGLAGLNSCPVKEANQSTLENFLERLKTIMIEKYSKCSS
B19: IL-4 mutein R121T (ligand)
chain: HKCDITLQEIIKTLNSLTEQKTLCTELTVTDIFAASKNTTEKETFCRAATVLRQFYSHHEKDTRCLGATAQQFHRHKQLIRFLKRLDRNLWGLAGLNSCPVKEANQSTLENFLERLKTIMTEKYSKCSS

Experiments:
Assay in all cases: cell-based or functional assay
[1] = molecular target: T2, HUVEC IL-4 receptor (IL-4Rα/γ-like receptor component) (human, UniProt P24394 26-825)
[2] = molecular target: T1, T cell IL-4 receptor (IL-4Rα/IL-2Rγ)
[3] = molecular target: T2, HUVEC IL-4 receptor (IL-4Rα/γ-like …); remark: listed apart in the source

Binder | IC50, HUVEC antagonist assay (IL-4-induced IL-6 secretion) [1] | 1° T cell proliferation, EC50, pM [2] | HUVEC, IL-6 secretion, EC50, pM [3] | antagonist potency relative to R121E, HUVEC antagonist assay [1]
B1 | ~0.06 µM | 65 pM | – | –
B2 | – | 100 pM | 650 pM | –
B3 | – | 100 pM | – | –
B4 | – | 150 pM | 35 pM | –
B5 | – | 150 pM | 40 pM | –
B6 | – | 300 pM | 350 pM | –
B7 | – | 150 pM | 65 pM | –
B8 | – | 150 pM | 100 pM | –
B9 | – | 600 pM | 200 pM | –
B10 | – | 425 pM | 350 pM | –
B11 | – | 150 pM | 20 pM | –
B12 | ~0.0022 µM | 100 pM | – | ~27 fold
B13 | – | 15 pM | – | –
B14 | – | 250 pM | 200 pM | –
B15 | – | 150 pM | 20 pM | –
B16 | – | 150 pM | 80 pM | –
B17 | – | 750 pM | 250 pM | –
B18 | – | 100 pM | 40 pM | –
B19 | – | 150 pM | 20 pM | –
